Patent US20230174663A1 (MEDABOME, published 2023)
Values joined by “and” are separate entries in the source; they are usually repeats but may differ in a detail not shown here. Identical values can stand only once.

Columns and labels:
[1] = target: T1, human TfR1-GFP fusion protein (rTfR1-GFP) expressed on the membrane of CHO-DG44 cells (human, UniProt P02786 1-760); assay: FACS titration on CHO/rTfR1-GFP cells
T1 construct: whole, on cells; also called CHO/rTfR1-GFP cells; CHO/rTfR-GFP cells; not shown: GFP (also called EGFP) fused in frame to the C-terminus
Text: The cDNA was in-frame fused with a GFP-coding DNA fragment to its C-terminus and then cloned into an in-house expression vector containing the human CMV promoter and a puromycin resistant gene (PuroR) for selection. […] CHO cell colonies stably expressing high-level EGFP were isolated and subcloned.

[2] = target: T2, recombinantly expressed human TfR1 extracellular domain with a His tag (rTfR1-ECD, ACRO Biosystems) (human, UniProt P02786 89-760); assay: BLI (Octet QK), mAb captured on anti-mouse Fc (AMC) biosensors, rTfR1-ECD in solution
T2 construct: extracellular domain; Bought reagent; also called 6His-tagged rTfR1-ECD; extracellular domain of TfR1

[3] = target: T2, recombinantly expressed human TfR1 …; assay: direct ELISA, plate coated with 0.1 µg/mL rTfR1-ECD, detection anti-mouse IgG Fc-HRP
Method: The plate was coated with 0.1 μg/mL of purified rTfR1-ECD containing a C-terminal 6×His tag. A mouse anti-6×His mAb and an isotype control Ab were used as positive and negative controls, respectively. All the primary antibodies were in 3-fold serial dilutions with a starting concentration of 3 μg/mL. Peroxidase AffiniPure Goat Anti-Mouse IgG Fey at 1:6,000 dilution was used for detection.
3,3′,5,5′-Tetramethylbenzidine (TMB) substrate was added and absorbance at 450 nm of wavelength was measured using a SpectraMax microplate reader (Molecular Device, San Jose, Calif.).

[4] = target: T2, recombinantly expressed human TfR1 …; assay: BLI (Octet QK), 10 nM mAb loaded on anti-mouse Fc sensors; same value printed in the rows 20, 8, 3.2 and 1.28 nM rTfR1-ECD; koff Error blank
[5] = target: T2, recombinantly expressed human TfR1 …; assay: BLI (Octet QK), 50 nM mAb loaded on anti-mouse Fc sensors; same value printed in the rows 20, 8, 3.2 and 1.28 nM rTfR1-ECD; koff Error blank
[6] = target: T2, recombinantly expressed human TfR1 …; assay: BLI (Octet QK), 10 nM mAb loaded on anti-mouse Fc sensors; same value printed in the rows 20, 8, 3.2 and 1.28 nM rTfR1-ECD; kon Error 2.12E+04, Full R^2 0.989
[7] = target: T2, recombinantly expressed human TfR1 …; assay: BLI (Octet QK), 50 nM mAb loaded on anti-mouse Fc sensors; same value printed in the rows 20, 8, 3.2 and 1.28 nM rTfR1-ECD; kon Error 9.80E+03, Full R^2 0.9909
[8] = target: T2, recombinantly expressed human TfR1 …; assay: BLI (Octet QK), cAb captured on anti-human Fc (AHC) biosensors, rTfR1-ECD 50 nM to 1.28 nM in solution
Method: (§1) Concentrations of rTfR1-ECD ranged from 50 nM to 1.28 nM by 2.5-fold serial dilutions.

[9] = target: T2, recombinantly expressed human TfR1 …; assay: BLI (Octet QK), 10 nM cAb loaded on anti-human Fc sensors; same value printed in the rows 50, 20, 8, 3.2 and 1.28 nM rTfR1-ECD; koff Error blank
Method: as §1

[10] = target: T2, recombinantly expressed human TfR1 …; assay: BLI (Octet QK), 50 nM cAb loaded on anti-human Fc sensors; same value printed in the rows 50, 20, 8, 3.2 and 1.28 nM rTfR1-ECD; koff Error blank
Method: as §1

[11] = target: T2, recombinantly expressed human TfR1 …; assay: BLI (Octet QK), 10 nM cAb loaded on anti-human Fc sensors; same value printed in the rows 50, 20, 8, 3.2 and 1.28 nM rTfR1-ECD; kon Error 5.18E+03, Full R^2 0.9885
Method: as §1

[12] = target: T2, recombinantly expressed human TfR1 …; assay: BLI (Octet QK), 50 nM cAb loaded on anti-human Fc sensors; same value printed in the rows 50, 20, 8, 3.2 and 1.28 nM rTfR1-ECD; kon Error 2.34E+03, Full R^2 0.9963
Method: as §1

T1 sequence (P02786 whole entry, the tested form may be a part): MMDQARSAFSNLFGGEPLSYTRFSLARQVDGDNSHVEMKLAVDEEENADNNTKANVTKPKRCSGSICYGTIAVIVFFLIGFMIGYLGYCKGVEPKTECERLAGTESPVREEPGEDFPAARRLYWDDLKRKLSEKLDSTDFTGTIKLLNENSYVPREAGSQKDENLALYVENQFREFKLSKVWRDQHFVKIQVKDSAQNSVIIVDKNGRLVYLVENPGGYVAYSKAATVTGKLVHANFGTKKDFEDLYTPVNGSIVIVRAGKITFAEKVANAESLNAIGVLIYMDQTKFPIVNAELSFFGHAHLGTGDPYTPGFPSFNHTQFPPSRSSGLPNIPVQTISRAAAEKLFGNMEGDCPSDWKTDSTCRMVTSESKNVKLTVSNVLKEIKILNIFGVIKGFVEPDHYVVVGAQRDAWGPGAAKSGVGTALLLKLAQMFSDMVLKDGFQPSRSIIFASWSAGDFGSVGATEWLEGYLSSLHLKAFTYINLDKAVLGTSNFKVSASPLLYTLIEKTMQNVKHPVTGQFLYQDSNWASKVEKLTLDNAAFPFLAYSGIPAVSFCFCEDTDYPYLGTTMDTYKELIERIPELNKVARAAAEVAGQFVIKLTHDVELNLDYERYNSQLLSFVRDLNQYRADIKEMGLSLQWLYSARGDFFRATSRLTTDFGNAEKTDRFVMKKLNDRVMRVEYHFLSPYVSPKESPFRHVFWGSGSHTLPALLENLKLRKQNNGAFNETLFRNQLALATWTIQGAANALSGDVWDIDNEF
T2 sequence (P02786 other isoform, or with tags, fused parts or gaps): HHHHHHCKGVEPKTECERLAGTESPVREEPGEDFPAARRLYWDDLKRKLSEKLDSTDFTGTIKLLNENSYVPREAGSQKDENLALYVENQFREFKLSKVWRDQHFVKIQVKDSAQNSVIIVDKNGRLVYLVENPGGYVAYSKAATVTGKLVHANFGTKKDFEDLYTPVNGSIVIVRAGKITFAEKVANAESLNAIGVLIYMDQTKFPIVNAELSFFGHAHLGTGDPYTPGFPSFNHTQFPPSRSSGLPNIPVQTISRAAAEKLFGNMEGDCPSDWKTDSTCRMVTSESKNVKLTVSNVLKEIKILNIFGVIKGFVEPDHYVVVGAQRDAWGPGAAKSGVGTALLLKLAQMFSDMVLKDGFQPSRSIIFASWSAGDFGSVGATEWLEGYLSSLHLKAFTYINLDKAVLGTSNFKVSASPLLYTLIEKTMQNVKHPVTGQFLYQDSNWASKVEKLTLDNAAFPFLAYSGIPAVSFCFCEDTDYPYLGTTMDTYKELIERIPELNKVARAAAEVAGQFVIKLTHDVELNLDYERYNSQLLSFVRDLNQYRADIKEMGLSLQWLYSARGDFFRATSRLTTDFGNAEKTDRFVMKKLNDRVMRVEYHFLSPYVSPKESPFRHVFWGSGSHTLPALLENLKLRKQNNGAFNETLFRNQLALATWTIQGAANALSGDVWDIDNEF

Binder | IC50 [1] | Kd [2] [pM] | EC50 (read off the curve) [3] [µg/mL] | koff [4] [s⁻¹] | koff [5] [s⁻¹] | kon [6] [M⁻¹ s⁻¹] | kon [7] [M⁻¹ s⁻¹] | Kd [8] [pM] | koff [9] [s⁻¹] | koff [10] [s⁻¹] | kon [11] [M⁻¹ s⁻¹] | kon [12] [M⁻¹ s⁻¹]
anti-human TfR1 control mAb (R&D Systems) (antibody, V domains shown) VH: QVQLQQSGPELVKPGASVKMSCKASGYTFTNYYIHWVKQRPGQGLEWIGWIYPGDGSTKYNEKFKGKTTLTADKSSSTAYMLLSSLTSEDSAIYFCARDGSSAPKFTYWGQGTLVTVSA VL: DIVMTQSPSSLTVTAGEKVTMRCKSSQSLLNSGNQKNYLTWYQQKPGQPPKLLIYWASTRESGVPDRFTGSGSGTDFTLTISSVQAEDLAVYYCQNDYSYPLTFGAGTKLELK | ~0.1 µg/mL |  |  |  |  |  |  |  |  |  |  | 
MAb11-22.1 mAb (antibody, IgG1, V domains shown, Mouse hybridoma antibody, IgG1/kappa; both are kept under this molecule) VH: EVQLQQSGPELVKPGASVRISCKTSGYTFTNYYIHWMKQRPGQGLEWIGWIYPGDGNSHYNEKFKGKTTLTADKSSSTGYILLSSLTSEDSAVYFCTRDYDNYGGFAYWGQGTLVTVSA VL: IVMTQSPSSLTVTAGEKVTMSCKSSQSLLNSGNQKNYLTWYQQKPGQPPKLLIYWASTWESRVPDHFTGSGSGTDFTLTISSVQAEDLAVYYCQNDYSYPLTFGAGTKLELKR | 0.03 µg/mL and 0.04 µg/mL | < 1 | ~0.04 | < 1e-07 | < 1e-07 | 1.16e+06 | 604000 |  |  |  |  | 
MAb11-22.1 chimeric Ab (cAb) (antibody, V domains shown, not shown: constant region of human IgG1 heavy chain (CH1-CH3); constant region of human kappa light chain (CL)) VH: EVQLQQSGPELVKPGASVRISCKTSGYTFTNYYIHWMKQRPGQGLEWIGWIYPGDGNSHYNEKFKGKTTLTADKSSSTGYILLSSLTSEDSAVYFCTRDYDNYGGFAYWGQGTLVTVSA VL: IVMTQSPSSLTVTAGEKVTMSCKSSQSLLNSGNQKNYLTWYQQKPGQPPKLLIYWASTWESRVPDHFTGSGSGTDFTLTISSVQAEDLAVYYCQNDYSYPLTFGAGTKLELKR |  |  |  |  |  |  |  | < 1 | < 1e-07 | < 1e-07 | 244000 | 196000
